# Measurements taken from US20150141489.
# Target: recombinant GST-S6 (UniProt P62753)
substance,measurement,value
T7-tagged mouse S6K1 Isoform-2 (Iso-2),in vitro kinase assay (phospho-S6 S240-244 blot),have no kinase activity
